Reference: paper PMC6107761

Assays:
Settings in all cases: remark: other sources report otherwise
[1] = target: T1, human wild type calcium and integrin binding protein 2 (CIB2) (human), O75838; assay: native gel or EMSA; Ferguson plot: non-denaturing continuous gels at 10, 12, 15% acrylamide, BSA as standard; 20 μM CIB2 with EGTA, Mg2+ or Ca2+ + Mg2+, 1 mM DTT, room temperature
T1 chain: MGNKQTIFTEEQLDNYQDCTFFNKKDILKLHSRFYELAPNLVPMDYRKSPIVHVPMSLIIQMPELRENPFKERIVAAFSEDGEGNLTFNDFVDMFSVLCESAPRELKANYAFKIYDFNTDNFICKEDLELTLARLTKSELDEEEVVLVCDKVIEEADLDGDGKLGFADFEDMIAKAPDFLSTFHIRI

[2] = target: T1, human wild type calcium and integrin …; assay: dynamic light scattering; Zetasizer Nano-S, 37°C; samples immediately after SEC in 20 mM Tris-HCl pH 7.5, 150 mM KCl, 1 mM DTT with 3 mM EGTA or 2 mM EGTA + 3 mM Mg2+ or 3 mM Mg2+ + 2 mM Ca2+
[3] = target: T1, human wild type calcium and integrin …; assay: SEC; analytical SEC, Superose 12 10/300GL; 20 mM Tris pH 7.5, 150 mM KCl, 1 mM DTT with 3 mM EGTA or 2 mM EGTA + 3 mM Mg2+ or 3 mM Mg2+ + 2 mM Ca2+; WT 100 μM, E64D 70 μM; MW from a calibration plot

Measured: stoichiometry N

B1: human wild type calcium and integrin binding protein 2 (CIB2), O75838-1 1-187 (natural protein)
chain: T1 chain
2: [1] | [2] | [3]
